Experimental data taken from US20250136687A1 (SHANDONG SIMCERE BIOPHARMACEUTICAL, published 2025).
Where two headings read alike, the source gives them in different places.

Legend:
[1] = molecular target: T1, human CD3 on the cell surface (Jurkat cells, expanded human T cells, Jurkat-Lucia NFAT cells, human PBMC) (human, UniProt P07766 23-207; P04234 22-171; P09693 23-182); test: FACS, Jurkat cells
T1 construct: whole, on cells; Endogenous CD3 within the TCR-CD3 complex on cells (also zeta chains and TCR); the cell type is named under assay
T1 sequence (P07766 23-207, chain 1 of 3): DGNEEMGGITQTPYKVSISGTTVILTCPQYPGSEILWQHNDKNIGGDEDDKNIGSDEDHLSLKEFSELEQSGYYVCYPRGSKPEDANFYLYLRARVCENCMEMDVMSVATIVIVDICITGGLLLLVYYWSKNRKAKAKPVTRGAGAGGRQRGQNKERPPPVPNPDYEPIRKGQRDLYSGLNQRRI
T1 sequence (P04234 22-171, chain 2 of 3): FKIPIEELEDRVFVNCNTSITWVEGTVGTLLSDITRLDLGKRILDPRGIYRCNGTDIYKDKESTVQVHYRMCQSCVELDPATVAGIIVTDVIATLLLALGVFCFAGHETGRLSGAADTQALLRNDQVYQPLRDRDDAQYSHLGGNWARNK
T1 sequence (P09693 23-182, chain 3 of 3): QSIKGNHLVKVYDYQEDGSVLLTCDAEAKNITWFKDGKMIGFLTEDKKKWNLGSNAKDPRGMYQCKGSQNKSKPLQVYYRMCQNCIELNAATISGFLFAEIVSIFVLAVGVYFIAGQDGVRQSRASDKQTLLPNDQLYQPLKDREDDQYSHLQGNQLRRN
Experimental: (§1) The binding of the chimeric antibodies to CD3 on the cell surface was analyzed by detecting the binding of the antibodies to Jurkat cells and human T cells. Suspension cells Jurkat cells were scale-up cultured in T-75 cell culture flasks to the logarithmic growth phase, the supernatant of the medium was discarded by centrifugation, and the cell pellet was washed 2 times with PBS for later use. The expanded human T cells were washed 2 times with PBS for later use. After counting the cells in the previous step, the cell pellet was resuspended with [PBS+2% (w/w) BSA] blocking solution to 4×10⁶ cells/ml, and added to a 96-well FACS reaction plate at 50 μl/well, and then the chimeric antibody to be tested was added at 50 μl/well, and incubated at 4° C. for 1 h. The cells were centrifuged and washed 3 times with a PBS buffer. […] The cells were centrifuged and washed 5 times with PBS, and FACS (FACS Canto™, purchased from BD Company) was used for detection and result analysis. Data analysis was performed by software (CellQuest) to obtain the mean fluorescence […] (MFI) of the cells. And then software (GraphPad Prism8) was used for analysis, data fitting, and EC50 value calculation. The same method was used to simultaneously detect the binding of the chimeric antibodies to endogenous CD3 negative cells MOLT4 cells.

[2] = molecular target: T1, human CD3 on the cell surface (Jurkat …); test: cell-based or functional assay
[3] = molecular target: T1, human CD3 on the cell surface (Jurkat …); test: FACS, expanded human T cells
Experimental: as §1

[4] = molecular target: T2, cynomolgus monkey CD3 on the surface of expanded monkey T cells (cynomolgus monkey, UniProt Q95LI5 22-198; Q95LI8 22-171; Q95LI7 23-181); test: FACS, expanded monkey T cells
T2 construct: whole, on cells; Endogenous CD3 within the TCR-CD3 complex on T cells expanded from cynomolgus monkey PBMC
T2 sequence (Q95LI5 22-198, chain 1 of 3): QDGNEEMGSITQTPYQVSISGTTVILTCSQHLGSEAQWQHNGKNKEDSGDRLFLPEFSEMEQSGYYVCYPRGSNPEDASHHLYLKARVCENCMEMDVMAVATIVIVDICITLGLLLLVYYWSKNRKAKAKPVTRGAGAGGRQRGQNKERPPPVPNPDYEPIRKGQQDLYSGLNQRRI
T2 sequence (Q95LI8 22-171, chain 2 of 3): as the sequence (P04234 22-171, chain 2 of 3) above, with I5V, N15K, I20V, S32T, D33N, I34N, T64A, S74N, V83L, H141R counted along it
T2 sequence (Q95LI7 23-181, chain 3 of 3): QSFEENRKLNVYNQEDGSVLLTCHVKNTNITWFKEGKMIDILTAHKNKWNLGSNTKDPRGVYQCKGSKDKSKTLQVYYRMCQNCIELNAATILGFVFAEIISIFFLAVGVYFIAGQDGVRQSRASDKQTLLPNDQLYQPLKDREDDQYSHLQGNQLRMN
Experimental: as §1
FACS detection and data analysis were performed on the cryopreserved monkey T cells of Example 2.4 according to the method in Example 5.1.

human CD3ε/δ-His [5] = molecular target: T3, human CD3ε/δ-His (human, UniProt P07766 23-126; P04234 22-105); test: ELISA, coated antigen
T3 construct: Bought recombinant heterodimer with His tag; also called human CD3ε/δ protein
T3 sequence (P07766 23-126, stated change not applied, form in doubt, chain 1 of 2): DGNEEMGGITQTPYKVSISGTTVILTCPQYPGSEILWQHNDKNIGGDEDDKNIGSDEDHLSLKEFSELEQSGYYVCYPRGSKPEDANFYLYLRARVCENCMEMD
T3 sequence (P04234 22-105, stated change not applied, form in doubt, chain 2 of 2): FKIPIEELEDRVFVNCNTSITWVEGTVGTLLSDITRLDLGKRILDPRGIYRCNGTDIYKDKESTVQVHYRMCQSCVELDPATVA
Experimental: (§2) To detect the binding activity of the humanized antibodies to CD3 protein, CD3 protein was diluted with PBS to the final concentration of […], then added to a 96-well ELISA plate at 50 μL/well, and the plate was sealed with a plastic film, and incubated overnight at 4° C. On the next day, the plate was washed 2 times with PBS, and a blocking solution [PBS+2% (v/v) BSA] was added for blocking at room temperature for 2 h. The blocking solution was poured off, and the antibody (initial concentration of 100 nM, and gradient dilution at 1:10) or a negative control antibody was added at 50 µl/well. After incubation at 37° C. for 2 h, the plate was washed 3 times with PBS. […] TMB substrate was added at 50 μl/well, and incubated at room temperature for 10 min, and then a stop solution (1.0 N HCl) was added at 50 μl/well. The OD450 nm values were read by an ELISA microplate reader (Multimode Plate Reader, EnSight, purchased from Perkin Elmer).

[6] = molecular target: T4, recombinant human CD3ε-ECD His protein (human, UniProt P07766 23-126); test: ELISA, coated antigen
T4 construct: extracellular domain; also called human CD3ε-His; CD3ε antigen protein; not shown: His tag
T4 sequence (P07766 23-126): as the sequence (P07766 23-126, stated change not applied, form in doubt, chain 1 of 2) above
Experimental: as §2

[7] = molecular target: T1, human CD3 on the cell surface (Jurkat …); test: FACS, expanded human T cells; remark: listed apart in the source
Experimental: as §1
The expanded human PBMC cells were collected, and FACS detection and data analysis were performed according to the method in Example 5.1.

monkey CD3ε/δ-His = molecular target: T5, monkey CD3ε/δ-His (monkey, UniProt Q95LI5 22-117; Q95LI8 22-105); test: ELISA, coated antigen
T5 construct: Bought recombinant heterodimer with His tag
T5 sequence (Q95LI8 22-105, stated change not applied, form in doubt, chain 2 of 2, one chain of several): as the sequence (P04234 22-105, stated change not applied, form in doubt, chain 2 of 2) above, with I5V, N15K, I20V, S32T, D33N, I34N, T64A, S74N, V83L counted along it
Experimental: as §2
(§3) To detect the binding activity of the humanized antibodies to monkey CD3 protein, CD3 protein was diluted with PBS to the final concentration of […], and then added to a 96-well ELISA plate at 50 μl/well.

monkey CD3ε protein = molecular target: T6, monkey CD3ε protein (monkey, UniProt Q95LI5 22-117, limits assumed); test: ELISA, coated antigen
T6 sequence (looked up): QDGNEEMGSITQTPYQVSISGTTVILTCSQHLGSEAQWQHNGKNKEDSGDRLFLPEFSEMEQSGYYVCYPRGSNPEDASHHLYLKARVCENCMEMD
Experimental: as §2, §3

[8] = molecular target: T2, cynomolgus monkey CD3 on the surface of …; test: FACS, expanded monkey T cells; remark: listed apart in the source
Experimental: as §1
The expanded monkey T cells were collected, and FACS detection and data analysis were performed according to the method in Example 5.1.

human CD3ε/δ-His [9] = molecular target: T3, human CD3ε/δ-His; test: SPR, antibody captured on Protein A chip
Experimental: (§4) Running buffer was HBS-EP+(10 mM HEPES, 150 mM NaCl, 3 mM EDTA, 0.05% surfactant P20) (GE Healthcare; BR-1006-69). The flow-through cell was set to 25° C. The sample block was set to 16° C. Both were pretreated with the running buffer. In each cycle, an antibody to be detected was first captured with a Protein A chip, and then a single concentration of CD3ε antigen protein was injected. The binding and dissociation processes of the antibody and the antigen protein were recorded, and finally Glycine pH 1.5 (GE Healthcare; BR-1003-54) was used to complete chip regeneration. The binding was measured by injecting different concentrations of recombinant human CD3ε proteins in a solution for 240 s with a flow rate of 30 μL/min. The concentration started from 200 nM (see the detailed results for the actual concentration in the test) and was diluted at 1:1, making a total of 5 concentrations. The dissociation phase was monitored for up to 600 s and was triggered by switching from sample solution to running buffer. The surface was regenerated by washing with a 10 mM glycine solution (pH 1.5) for 30 s at a flow rate of 30 μL/min. Bulk refractive index difference was corrected by subtracting the response obtained from the goat anti-human Fc surface, and the blank injection was subtracted at the same time (=double reference). For calculation of apparent KD value and other kinetic parameters, Langmuir 1:1 model was used.

[10] = molecular target: T4, recombinant human CD3ε-ECD His protein; test: SPR, antibody captured on Protein A chip
Experimental: as §4

B1: 6-35.22 human-murine chimeric antibody (antibody, human IgG1, kappa, V domains shown)
VH: EVKLVESGGGLVQPGASLSLSCAASGFTFTDYYMSWVRQPPGKALEWLAMSRNKAKGHTIEYSSSVKGRFTISRDNSQSILYLQMNALRAEDSATYYCARDTYESYDGYFDVWGAGTTVIVSS
VL: DIVMSQSPSSLAVSAGETVTMSCKSSQSLFNSRSRKNYLAWYQQKPGQTPKLLIYWASIRESGVPDRFTGSGSGTDFTLTISSVQAEDLAVYYCKQSYYLYTFGSGTKLEIKR
notes: Human IgG1 chimera
- EC50 [1]: 8.3 nM
- MFI_Max [1]: 26700 MFI
- EC50 (nM), luciferase reporter, Jurkat-Lucia NFAT cells [2]: 0.82 nM
- Maximum response value (RLU) [2]: 27000 RLU
- EC50 [3]: 3.62 nM
- MFI_Max [3]: 8900 MFI
- EC50 [4]: 4.18 nM
- MFI_Max [4]: 18200 MFI

B2: 6-35.22-H1-L1 humanized antibody (antibody, human IgG1, kappa, V domains shown)
VH: EVQLVESGGGVVQPGRSLRLSCAASGFTFTDYYMSWVRQAPGKGLEWVAMSRNKAKGHTIEYSSSVKGRFTISRDNSKNTLYLQMNSLRAEDTAVYYCARDTYESYDGYFDVWGQGTTVTVSS
VL: DIVMTQSPDSLAVSLGERATINCKSSQSLFNSRSRKNYLAWYQQKPGQTPKLLIYWASIRESGVPDRFSGSGSGTDFTLTISSLQAEDVAVYYCKQSYYLYTFGQGTKLEIKR
- EC50 (human CD3ε/δ-His [5]): 0.53 nM
- max-OD450 (human CD3ε/δ-His [5]): 2.93 OD450
- EC50 [6]: 0.0337 nM
- max-OD450 [6]: 3.1 OD450
- EC50 [7]: 49.7 nM
- max_MFI [7]: 11300 MFI

B3: 7-35.6-H2-L3 humanized antibody (antibody, human IgG1, lambda, V domains shown)
VH: EVQLVESGGGLVQPGGSLKLSCAASGFTFNTYAMNWVRQASGKGLEWVGRIRSKINNYATYYGDSVKDRFTISRDDSKNTFYLQMNSLKTEDTAVYYCVIHENYGSISWFAYWGQGTLVTVSS
VL: ETVVTQEPSLTVSPGGTVTLTCRSSTGAVTTSNYANWVQQKPGQAFTGLIGGTNNRAPWTPARFSGSLLGGKAALTLSGVQPEDEAEYYCALWYSNHWVFGGGTKLTVLG
- EC50 (human CD3ε/δ-His [5]): 0.32 nM
- max-OD450 (human CD3ε/δ-His [5]): 3.15 OD450
- EC50 [6]: 0.0395 nM
- max-OD450 [6]: 3.12 OD450
- EC50 (monkey CD3ε/δ-His): 0.0552 nM
- max-OD450 (monkey CD3ε/δ-His): 3.13 OD450
- EC50 (monkey CD3ε protein): 0.00859 nM
- max-OD450 (monkey CD3ε protein): 3.01 OD450
- EC50 [7]: 9.45 nM
- max_MFI [7]: 10000 MFI
- EC50 [8]: 7.84 nM
- max_MFI [8]: 10200 MFI
- Kd (human CD3ε/δ-His [9]): 145 nM
- koff (human CD3ε/δ-His [9]): 0.0335 s⁻¹
- kon (human CD3ε/δ-His [9]): 231000 M⁻¹ s⁻¹
- Kd [10]: 1.29 nM
- koff [10]: 0.000369 s⁻¹
- kon [10]: 286000 M⁻¹ s⁻¹

B4: 8-18.1-H1-L2 humanized antibody (antibody, human IgG1, kappa, V domains shown)
VH: EVQLVQSGAEVKKPGASVKVSCKASGYTFTMNTMHWVRQAPGQRLEWMGYINPYSGYTKYNQIFKDRVTITADKSASTAYMELSSLRSEDTAVYYCLRGGEGVWGQGTTVTVSS
VL: DVVMTQSPLSLPVTLGQPASISCKSSQSLLDSDGKTYLNWLQQRPGQSPRRLIYLVSELGSGVPDRFSGSGSGTDFTLKISRVEAEDVGVYYCWQGTHFPRTFGGGTKVEIKR
- EC50 (human CD3ε/δ-His [5]): 0.22 nM
- max-OD450 (human CD3ε/δ-His [5]): 3.16 OD450
- EC50 [6]: 0.0363 nM
- max-OD450 [6]: 3.11 OD450
- EC50 (monkey CD3ε/δ-His): 0.0193 nM
- max-OD450 (monkey CD3ε/δ-His): 3.16 OD450
- EC50 (monkey CD3ε protein): 0.00475 nM
- max-OD450 (monkey CD3ε protein): 3.1 OD450
- EC50 [7]: 7.05 nM
- max_MFI [7]: 11500 MFI
- EC50 [8]: 2.84 nM
- max_MFI [8]: 11800 MFI
- Kd (human CD3ε/δ-His [9]): 67.4 nM
- koff (human CD3ε/δ-His [9]): 0.0317 s⁻¹
- kon (human CD3ε/δ-His [9]): 469000 M⁻¹ s⁻¹
- Kd [10]: 0.908 nM
- koff [10]: 0.000249 s⁻¹
- kon [10]: 274000 M⁻¹ s⁻¹

B5: 5-7.13-H1a-L2 humanized antibody (antibody, human IgG1, kappa, V domains shown)
VH: EVQLVQSGAEVKKPGASVKVSCKASGYTFTSYWVHWVRQAPGQRLEWMGNINPSDGVTNYNEKFKSRVTITVDKSASTAYMELSSLRSEDTAVYYCTRDAYGQYYFDNWGQGTTVTVSS
VL: DIVMTQTPLSLPVTPGEPASISCKSSQSLLNSRTRKNYLAWYLQKPGQSPQLLIYWASVRDSGVPDRFSGSGSGTDFTLKISRVEAEDVGVYYCIQSYYLRTFGGGTKVEIKR
- EC50 (human CD3ε/δ-His [5]): 0.19 nM
- max-OD450 (human CD3ε/δ-His [5]): 3.01 OD450
- EC50 [6]: 0.0206 nM
- max-OD450 [6]: 3.16 OD450
- EC50 (monkey CD3ε/δ-His): 0.00332 nM
- max-OD450 (monkey CD3ε/δ-His): 3.08 OD450
- EC50 (monkey CD3ε protein): 0.00263 nM
- max-OD450 (monkey CD3ε protein): 2.99 OD450
- EC50 [7]: 1.52 nM
- max_MFI [7]: 35900 MFI
- EC50 [8]: 0.92 nM
- max_MFI [8]: 25400 MFI
- Kd (human CD3ε/δ-His [9]): 27.4 nM
- koff (human CD3ε/δ-His [9]): 0.00983 s⁻¹
- kon (human CD3ε/δ-His [9]): 358000 M⁻¹ s⁻¹
- Kd [10]: 0.806 nM
- koff [10]: 0.000214 s⁻¹
- kon [10]: 266000 M⁻¹ s⁻¹
